Earlier results on one substance are cited in article PMC5310643.

This data set concerns the target κI light chain variable domain (germline) VL (Homo sapiens) (UniProt P01594). The experiment in a line: NMR diffusion.

As for “κI light chain variable domain (germline) VL (from UniProt P01594)”, the dissociation constant (Kd) was 217 µM.
